Key:
Assay in all cases: pull-down binding Z-score (relative to library population); higher = stronger binding
Conditions in all cases: RNA library: Library-2
[1] = test system: TO-N3-2 (biotin conjugate)
In short: (§1)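 The RNA library, end-labelled with Cy5 or Cy3, was heat-folded in phosphate/NaCl/KCl buffer, and 1 μg was incubated at 25 °C for 60 min with streptavidin beads carrying 100 pmol of biotin-conjugated small molecule. Hot SDS released the bound RNA, which was then hybridised to a DNA barcode microarray for 20 h at 55.5 °C. For scoring binding, signal from beads alone was subtracted, replicate barcoded probes were averaged after discarding the highest and lowest, and each value was turned into a Z-score from the library mean and standard deviation.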

[2] = test system: TO-3-N3-2 (biotin conjugate)
In short: as §1

TO-N3 (biotin conjugate) = test system: TO-N3 (biotin conjugate)
In short: as §1

[3] = test system: TO-3-N3 (biotin conjugate)
In short: as §1

Sequence	pull-down binding Z-score [1]	pull-down binding Z-score [2]	pull-down binding Z-score (TO-N3 (biotin conjugate))	pull-down binding Z-score [3]
UGUCAUUACUUCAGGUGAUGGCA	-1.31	-0.0892	-0.14	0.0463
UGUCCGUGAUCCACAGACA	-0.685	-0.597	-0.9	-0.695
UGUCUUUCGAUCAAAACCUGGAUUAUCAAAUAGGAUACAUCUGCAGUGGGGUUUUCGGUGACAACCCGCGUCCCGAAGAUGGAACAGGCA	0.432	-0.424	-0.552	-0.887
UGUGACCUUCAAAAUUAUGGUGAUAGUGCAACAUUACCUAAAGGCAUAAUGAUGAAUGUCGCA	-1.05	-0.486	-0.621	-0.431
UGUGACUGGACA [SHAPE_invivo_SARS-CoV-2_Motif_313]	-0.14	-0.233	0.774	0.86
UGUGAUUUUAAUAGCUUCUUAGGAGAAUGACA [SHAPE_invivo_SARS-CoV-2_Motif_573]	-0.333	-0.182	-0.641	-0.571
UGUGCUUGUGAAAUUGUCGGUGGACAAAUUGUCACCUGUGCA	-0.816	-0.27	-0.833	-0.722
UGUGGAAAGGGCUAUCAUCUUAUGUCCUUCCCUCA [DMSMaPseq_invitro_SARS-CoV-2_Motif_440]	-0.837	-0.0817	-0.154	-0.089
UGUGGACAUGUCAAUGACAUAUGGACAACAGUUUGGUCCAACUUAUUUGGAUGGAGCUGAUGUUACUAAAAUAAAACCUCAUAAUUCACA	-0.453	-0.162	-0.544	-0.618
UGUGGUAAACAAGCUACA	-0.906	-0.468	-0.766	-0.644
UGUGUACACACA [SHAPE_invivo_SARS-CoV-2_Motif_249]	-0.584	-0.496	0.0581	0.252
UGUGUCAAUAUUUAAACACA	-0.99	-0.00504	0.135	0.372
UGUGUGAUAUCAGACA	-0.597	-0.703	-0.639	-0.5
UGUUACUUUAUAUUGACAUUAAUGGCAAUCUUCAUCCAGAUUCUGCCACUCUUGUUAGUGACA	-0.868	-0.104	-0.585	-0.354
UGUUGCUUAUGAAAGUUUACGCCCUGACACACGUUAUGUGCUCAUGGAUGGCUCUAUUAUUCAAUUUCCUAACACCUACCUUGAAGGUUCUGUUAGAGUGGUAACA [SHAPE_invitro_SARS-CoV-2_Multi_27_ComplexLevel_1]	0.0671	0.0467	-0.452	-0.56
UGUUGGCAUCAUUCUAUUGGAUUUGAUUACGUCUAUAAUCCGUUUAUGAUUGAUGUUCAACA	-0.625	-0.183	-0.712	-0.515
UGUUGUAAAUAAGGGACACUUUGAUGGACAACA [DMSMaPseq_invitro_SARS-CoV-2_Motif_348]	0.325	-0.178	-0.488	-0.73
UGUUGUAACAACA	-1.35	-0.596	-0.992	-0.671
UGUUUUCUACAAAGAAAACA [SHAPE_invivo_SARS-CoV-2_Motif_122]	-1.85	-0.34	-0.865	-0.462
UUAAAAUAUGACUUCACGGAAGAGAGGUUAAAACUCUUUGACCGUUAUUUUAA [DMSMaPseq_invitro_SARS-CoV-2_Motif_258]	-0.898	0.159	-0.184	0.0656
UUAAACACGCUUGUUAAACAACUUAGCUCCAAUUUUGGUGCAAUUUCAAGUGUUUUAA [SHAPE_invivo_SARS-CoV-2_Motif_457]	-0.627	-0.0371	0.301	0.47
UUAACGUGAGUCUUGUAAAACCUUCUUUUUACGUUUACUCUCGUGUUAA [DMSMaPseq_invitro_SARS-CoV-2_Motif_474]	-1.02	-0.0657	-0.275	-0.223
UUAAGGUGUUUACAACAGUAGACAACAUUAA [DMSMaPseq_invitro_SARS-CoV-2_Motif_93]	-1.08	-0.382	-1.08	-1.01
UUAAGUGACACACUUAA	-1.49	-0.663	-1.18	-0.711
UUAAUGCCUGUCUGUGUGGAAACUAAAGCCAUAGUUUCAACUAUACAGCGUAAAUAUAAGGGUAUUAA [DMSMaPseq_invitro_SARS-CoV-2_Motif_83]	-0.463	0.502	-0.439	-0.287
UUAAUGGAGUCACAUUAA [DMSMaPseq_invitro_SARS-CoV-2_Motif_357]	-1	-0.347	0.273	0.485
UUAAUUGAAUUGUGCGUGGAUGAGGCUGGUUCUAAAUCACCCAUUCAGUACAUCGAUAUCGGUAAUUAUACAGUUUCCUGUUUACCUUUUACAAUUAA [DMSMaPseq_invitro_SARS-CoV-2_Multi_84_ComplexLevel_1]	-0.403	0.0361	-0.239	-0.244
UUACACCACUGGGCAUUGAUUUAGAUGAGUGGAGUAUGGCUACAUACUACUUAUUUGAUGAGUCUGGUGAGUUUAA	-1.04	-0.516	-1.09	-0.972
UUACAGAAGAGGUUGGCCACACAGAUCUAAUGGCUGCUUAUGUAG	-0.138	-0.244	-0.376	-0.523
UUACAGAUCUUUACCAGGAGUUUUCUGUGGUGUAGAUGCUGUAA [SHAPE_invivo_SARS-CoV-2_Motif_187]	-1	-0.414	-1.21	-0.96

— the supplement of paper PMC11865577
